Test results taken from article PMC9482650, “Quantitative fragmentomics allow affinity mapping of interactomes” (Nature Communications, 2022).
Blank lines part the entries; values can stand above or below the binder they belong to.

Tests used:
Assay in all cases: holdup assay
Parameters in all cases: key: below the threshold = too weak to quantify, mostly under pKd 3.1 to 4
DFNB31_2, Q9P202 = molecular target: T1, DFNB31_2, Q9P202
T1 sequence (Q9P202 274-371, limits assumed, looked up): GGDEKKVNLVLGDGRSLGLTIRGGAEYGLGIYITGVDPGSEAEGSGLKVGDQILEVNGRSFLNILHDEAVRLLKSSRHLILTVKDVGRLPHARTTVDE

IL16_3, Q14005 = molecular target: IL16_3, Q14005
DVL3, Q92997 = molecular target: T2, DVL3, Q92997
T2 sequence (Q92997 244-331, limits assumed, looked up): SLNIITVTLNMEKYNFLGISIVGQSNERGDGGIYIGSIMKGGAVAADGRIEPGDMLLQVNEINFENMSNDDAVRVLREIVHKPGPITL

TJP1_2, Q07157 = molecular target: TJP1_2, Q07157
TJP2_1, Q9UDY2 = molecular target: TJP2_1, Q9UDY2
GRIP2_3, Q9C0E4 = molecular target: GRIP2_3, Q9C0E4
LIMK2, P53671 = molecular target: LIMK2, P53671
GRASP, Q7Z6J2 = molecular target: GRASP, Q7Z6J2
HTRA1, Q92743 = molecular target: HTRA1, Q92743
APBA2_1, Q99767 = molecular target: T3, APBA2_1, Q99767
T3 sequence (Q99767 563-664, limits assumed, looked up): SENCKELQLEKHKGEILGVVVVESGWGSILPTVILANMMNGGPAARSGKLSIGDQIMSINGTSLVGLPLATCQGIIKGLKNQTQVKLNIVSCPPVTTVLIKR

DLG1_1, Q12959 = molecular target: DLG1_1, Q12959
NHERF4_1, Q86UT5-2 = molecular target: NHERF4_1, Q86UT5-2
SNTB1, Q13884 = molecular target: T4, SNTB1, Q13884
T4 sequence (Q13884 107-205, limits assumed, looked up): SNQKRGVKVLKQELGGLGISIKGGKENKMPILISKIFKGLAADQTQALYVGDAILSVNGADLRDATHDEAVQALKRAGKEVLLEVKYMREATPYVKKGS

LNX2_3, Q8N448 = molecular target: T5, LNX2_3, Q8N448
T5 sequence (Q8N448 463-564, limits assumed, looked up): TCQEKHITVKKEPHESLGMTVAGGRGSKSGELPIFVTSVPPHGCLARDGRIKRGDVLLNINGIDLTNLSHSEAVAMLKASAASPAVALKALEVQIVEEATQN

MPDZ_10, O75970 = molecular target: T6, MPDZ_10, O75970
T6 sequence (O75970 1624-1722, limits assumed, looked up): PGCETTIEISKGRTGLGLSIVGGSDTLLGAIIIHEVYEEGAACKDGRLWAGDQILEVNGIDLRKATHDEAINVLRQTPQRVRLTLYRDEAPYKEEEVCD

SNX27, Q96L92 = molecular target: SNX27, Q96L92
APBA2_2, Q99767 = molecular target: T7, APBA2_2, Q99767
T7 sequence (Q99767 654-744, limits assumed, looked up): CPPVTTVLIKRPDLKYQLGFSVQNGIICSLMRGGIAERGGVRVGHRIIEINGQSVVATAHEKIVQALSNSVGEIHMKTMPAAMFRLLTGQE

SCRIB_3, Q14160 = molecular target: SCRIB_3, Q14160
IL16_4, Q14005 = molecular target: IL16_4, Q14005
GRIP2_6, Q9C0E4 = molecular target: GRIP2_6, Q9C0E4
RAPGEF6, Q8TEU7 = molecular target: T8, RAPGEF6, Q8TEU7
T8 sequence (Q8TEU7 525-625, limits assumed, looked up): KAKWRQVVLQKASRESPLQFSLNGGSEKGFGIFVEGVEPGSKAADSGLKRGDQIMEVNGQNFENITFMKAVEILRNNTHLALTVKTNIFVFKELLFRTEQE

SCRIB_2, Q14160 = molecular target: SCRIB_2, Q14160
MPP6, Q9NZW5 = molecular target: T9, MPP6, Q9NZW5
T9 sequence (Q9NZW5 125-219, limits assumed, looked up): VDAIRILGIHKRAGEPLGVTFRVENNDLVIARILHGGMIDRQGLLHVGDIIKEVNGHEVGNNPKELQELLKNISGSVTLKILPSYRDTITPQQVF

DLG5_1, Q8TDM6 = molecular target: DLG5_1, Q8TDM6
PDZD2_2, O15018 = molecular target: T10, PDZD2_2, O15018
T10 sequence (O15018 329-429, limits assumed, looked up): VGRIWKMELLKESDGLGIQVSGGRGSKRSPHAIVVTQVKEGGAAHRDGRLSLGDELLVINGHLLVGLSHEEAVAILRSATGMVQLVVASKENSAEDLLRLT

ARHGEF11, O15085 = molecular target: T11, ARHGEF11, O15085
T11 sequence (O15085 42-136, limits assumed, looked up): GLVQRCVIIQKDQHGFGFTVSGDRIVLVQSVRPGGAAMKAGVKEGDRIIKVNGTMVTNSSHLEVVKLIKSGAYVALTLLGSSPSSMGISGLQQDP

[1] = plain residues with an end cap or a label only (N-terminal biotin on a linker: ttds)
[2] = plain residues with an end cap or a label only (N-terminal biotin on a linker: ahx)

LIMK2, P53671, sequence (P53671 143-248): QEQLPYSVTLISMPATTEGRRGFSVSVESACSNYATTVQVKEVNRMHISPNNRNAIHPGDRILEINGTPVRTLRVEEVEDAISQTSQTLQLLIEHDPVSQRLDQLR
SCRIB_2, Q14160, sequence (Q14160 857-960): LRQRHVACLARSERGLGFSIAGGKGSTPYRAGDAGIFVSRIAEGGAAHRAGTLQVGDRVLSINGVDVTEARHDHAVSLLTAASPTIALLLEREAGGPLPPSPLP
IL16_4, Q14005, sequence (Q14005 1229-1329): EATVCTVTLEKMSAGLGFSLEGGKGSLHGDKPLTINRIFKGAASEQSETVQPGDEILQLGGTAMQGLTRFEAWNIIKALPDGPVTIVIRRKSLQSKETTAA
SCRIB_3, Q14160, sequence (Q14160 999-1103): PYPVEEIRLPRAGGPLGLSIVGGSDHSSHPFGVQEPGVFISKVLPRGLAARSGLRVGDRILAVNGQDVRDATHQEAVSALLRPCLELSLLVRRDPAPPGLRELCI
DLG5_1, Q8TDM6, sequence (Q8TDM6 617-713): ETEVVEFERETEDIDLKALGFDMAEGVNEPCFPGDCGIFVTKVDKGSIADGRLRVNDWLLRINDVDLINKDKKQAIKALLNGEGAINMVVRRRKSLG
HTRA1, Q92743, sequence (Q92743 360-477): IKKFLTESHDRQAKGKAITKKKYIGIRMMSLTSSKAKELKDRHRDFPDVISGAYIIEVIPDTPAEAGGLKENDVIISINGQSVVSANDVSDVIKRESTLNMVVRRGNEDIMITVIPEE
GRIP2_6, Q9C0E4, sequence (Q9C0E4 648-740): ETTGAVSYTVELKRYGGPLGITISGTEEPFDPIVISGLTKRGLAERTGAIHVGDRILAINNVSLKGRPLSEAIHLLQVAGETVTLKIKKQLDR
GRASP, Q7Z6J2, sequence (Q7Z6J2 96-193): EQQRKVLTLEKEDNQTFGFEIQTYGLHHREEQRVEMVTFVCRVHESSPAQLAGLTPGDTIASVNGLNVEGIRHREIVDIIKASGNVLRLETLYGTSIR
IL16_3, Q14005, sequence (Q14005 1107-1207): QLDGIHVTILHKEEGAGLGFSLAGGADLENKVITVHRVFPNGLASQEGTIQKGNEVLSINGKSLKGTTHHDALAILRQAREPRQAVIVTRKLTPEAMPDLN
GRIP2_3, Q9C0E4, sequence (Q9C0E4 238-339): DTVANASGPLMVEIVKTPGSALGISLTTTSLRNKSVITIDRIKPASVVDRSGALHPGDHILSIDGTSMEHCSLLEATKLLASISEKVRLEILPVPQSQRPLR
TJP1_2, Q07157, sequence (Q07157 181-274): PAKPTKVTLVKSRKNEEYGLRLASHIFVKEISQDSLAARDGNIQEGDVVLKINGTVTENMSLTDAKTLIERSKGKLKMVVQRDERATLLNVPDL
TJP2_1, Q9UDY2, sequence (Q9UDY2 24-128): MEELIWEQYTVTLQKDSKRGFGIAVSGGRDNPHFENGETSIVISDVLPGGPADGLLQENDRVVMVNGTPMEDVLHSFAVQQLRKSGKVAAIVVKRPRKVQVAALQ
NHERF4_1, Q86UT5-2, sequence (Q86UT5 other isoform, or with tags, fused parts or gaps): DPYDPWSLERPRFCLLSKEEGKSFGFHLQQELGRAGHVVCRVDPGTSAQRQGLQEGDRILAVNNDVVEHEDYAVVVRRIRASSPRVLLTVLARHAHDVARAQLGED

pKd (DFNB31_2, Q9P202; [1]): below the threshold
pKd (IL16_3, Q14005; [1]): below the threshold
pKd (DVL3, Q92997; [1]): below the threshold
pKd (TJP1_2, Q07157; [1]): below the threshold
pKd (TJP2_1, Q9UDY2; [1]): below the threshold
pKd (GRIP2_3, Q9C0E4; [1]): below the threshold
pKd (LIMK2, P53671; [1]): below the threshold
pKd (GRASP, Q7Z6J2; [1]): below the threshold
pKd (HTRA1, Q92743; [1]): 3.92
pKd (APBA2_1, Q99767; [1]): below the threshold
pKd (DLG1_1, Q12959; [1]): below the threshold
pKd (NHERF4_1, Q86UT5-2; [1]): below the threshold
pKd (SNTB1, Q13884; [1]): 4.26
pKd (LNX2_3, Q8N448; [1]): below the threshold
pKd (MPDZ_10, O75970; [1]): below the threshold
pKd (SNX27, Q96L92; [1]): 5.66
pKd (APBA2_2, Q99767; [1]): below the threshold
pKd (SCRIB_3, Q14160; [1]): 5.08
pKd (IL16_4, Q14005; [1]): below the threshold
pKd (GRIP2_6, Q9C0E4; [1]): below the threshold
pKd (RAPGEF6, Q8TEU7; [1]): below the threshold
pKd (SCRIB_2, Q14160; [1]): 4.68
pKd (MPP6, Q9NZW5; [1]): below the threshold
pKd (DLG5_1, Q8TDM6; [1]): below the threshold
Binder: NDPAWDETNL [ARHGEF7, Q14155;Q14155-1]

pKd (DFNB31_2, Q9P202; [1]): 3.51
pKd (IL16_3, Q14005; [1]): below the threshold
pKd (DVL3, Q92997; [1]): below the threshold
pKd (TJP1_2, Q07157; [1]): below the threshold
pKd (TJP2_1, Q9UDY2; [1]): below the threshold
pKd (GRIP2_3, Q9C0E4; [1]): below the threshold
pKd (LIMK2, P53671; [1]): 3.52
pKd (GRASP, Q7Z6J2; [1]): 4.01
pKd (HTRA1, Q92743; [1]): 4.23
pKd (APBA2_1, Q99767; [1]): below the threshold
pKd (DLG1_1, Q12959; [1]): 4.2
pKd (NHERF4_1, Q86UT5-2; [1]): below the threshold
pKd (PDZD2_2, O15018; [1]): 3.87
pKd (SNTB1, Q13884; [1]): 4.71
pKd (LNX2_3, Q8N448; [1]): below the threshold
pKd (MPDZ_10, O75970; [1]): 3.7
pKd (SNX27, Q96L92; [1]): below the threshold
pKd (APBA2_2, Q99767; [1]): below the threshold
pKd (SCRIB_3, Q14160; [1]): 4.1
pKd (IL16_4, Q14005; [1]): below the threshold
pKd (GRIP2_6, Q9C0E4; [1]): 3.67
pKd (RAPGEF6, Q8TEU7; [1]): below the threshold
pKd (ARHGEF11, O15085; [1]): 4.6
pKd (SCRIB_2, Q14160; [1]): below the threshold
pKd (MPP6, Q9NZW5; [1]): below the threshold
pKd (DLG5_1, Q8TDM6; [1]): below the threshold
Binder: EMDRRPATVV [PLCB4, Q15147]

pKd (DFNB31_2, Q9P202; [2]): below the threshold
pKd (IL16_3, Q14005; [2]): below the threshold
pKd (DVL3, Q92997; [2]): below the threshold
pKd (TJP1_2, Q07157; [2]): below the threshold
pKd (TJP2_1, Q9UDY2; [2]): below the threshold
pKd (GRIP2_3, Q9C0E4; [2]): below the threshold
pKd (LIMK2, P53671; [2]): below the threshold
pKd (GRASP, Q7Z6J2; [2]): below the threshold
pKd (HTRA1, Q92743; [2]): below the threshold
pKd (APBA2_1, Q99767; [2]): below the threshold
pKd (DLG1_1, Q12959; [2]): below the threshold
pKd (NHERF4_1, Q86UT5-2; [2]): below the threshold
pKd (PDZD2_2, O15018; [2]): below the threshold
pKd (SNTB1, Q13884; [2]): below the threshold
pKd (LNX2_3, Q8N448; [2]): below the threshold
pKd (SNX27, Q96L92; [2]): below the threshold
pKd (APBA2_2, Q99767; [2]): below the threshold
pKd (SCRIB_3, Q14160; [2]): below the threshold
pKd (IL16_4, Q14005; [2]): below the threshold
pKd (GRIP2_6, Q9C0E4; [2]): below the threshold
pKd (RAPGEF6, Q8TEU7; [2]): below the threshold
pKd (ARHGEF11, O15085; [2]): below the threshold
pKd (SCRIB_2, Q14160; [2]): below the threshold
pKd (MPP6, Q9NZW5; [2]): below the threshold
pKd (DLG5_1, Q8TDM6; [2]): below the threshold
Binder: PSASCAVTAA [PDLIM4, P50479;P50479-2]

pKd (DFNB31_2, Q9P202; [1]): below the threshold
pKd (IL16_3, Q14005; [1]): below the threshold
pKd (DVL3, Q92997; [1]): below the threshold
pKd (TJP1_2, Q07157; [1]): below the threshold
pKd (TJP2_1, Q9UDY2; [1]): below the threshold
pKd (GRIP2_3, Q9C0E4; [1]): below the threshold
pKd (LIMK2, P53671; [1]): below the threshold
pKd (GRASP, Q7Z6J2; [1]): 4.39
pKd (HTRA1, Q92743; [1]): below the threshold
pKd (APBA2_1, Q99767; [1]): below the threshold
pKd (DLG1_1, Q12959; [1]): below the threshold
pKd (NHERF4_1, Q86UT5-2; [1]): below the threshold
pKd (PDZD2_2, O15018; [1]): 4.01
pKd (SNTB1, Q13884; [1]): 3.65
pKd (LNX2_3, Q8N448; [1]): below the threshold
pKd (MPDZ_10, O75970; [1]): below the threshold
pKd (SNX27, Q96L92; [1]): below the threshold
pKd (APBA2_2, Q99767; [1]): below the threshold
pKd (SCRIB_3, Q14160; [1]): below the threshold
pKd (IL16_4, Q14005; [1]): below the threshold
pKd (GRIP2_6, Q9C0E4; [1]): below the threshold
pKd (RAPGEF6, Q8TEU7; [1]): below the threshold
pKd (ARHGEF11, O15085; [1]): 3.64
pKd (SCRIB_2, Q14160; [1]): below the threshold
pKd (MPP6, Q9NZW5; [1]): below the threshold
pKd (DLG5_1, Q8TDM6; [1]): below the threshold
Binder: PRVKPQRSKV [PPP1R13L, Q8WUF5]

pKd (DFNB31_2, Q9P202; [2]): below the threshold
pKd (IL16_3, Q14005; [2]): below the threshold
pKd (DVL3, Q92997; [2]): below the threshold
pKd (TJP1_2, Q07157; [2]): below the threshold
pKd (TJP2_1, Q9UDY2; [2]): below the threshold
pKd (GRIP2_3, Q9C0E4; [2]): below the threshold
pKd (LIMK2, P53671; [2]): below the threshold
pKd (GRASP, Q7Z6J2; [2]): 3.94
pKd (HTRA1, Q92743; [2]): 4.32
pKd (APBA2_1, Q99767; [2]): below the threshold
pKd (DLG1_1, Q12959; [2]): 4.06
pKd (NHERF4_1, Q86UT5-2; [2]): below the threshold
pKd (PDZD2_2, O15018; [2]): 4.44
pKd (LNX2_3, Q8N448; [2]): below the threshold
pKd (MPDZ_10, O75970; [2]): below the threshold
pKd (APBA2_2, Q99767; [2]): below the threshold
pKd (SCRIB_3, Q14160; [2]): below the threshold
pKd (IL16_4, Q14005; [2]): below the threshold
pKd (GRIP2_6, Q9C0E4; [2]): below the threshold
pKd (RAPGEF6, Q8TEU7; [2]): below the threshold
pKd (ARHGEF11, O15085; [2]): 4.01
pKd (SCRIB_2, Q14160; [2]): below the threshold
pKd (MPP6, Q9NZW5; [2]): below the threshold
pKd (DLG5_1, Q8TDM6; [2]): below the threshold
Binder: LSDPSVSTVV [GRIN1, Q05586;Q05586-2]
